Results from patent publication US20120309934A1 (GWANGJU INSTITUTE OF SCIENCE AND TECHNOLOGY, published 2012).

Tests used:
[1] = target: T1, Fibronectin ED-B protein (human fibronectin extra domain B, N-terminal His-tag) (human, UniProt P02751 1266-1356, biotinylated with sulfo-NHS-SS-biotin for biopanning, input-phage ELISA and SPR on the streptavidin chip); assay: SPR (BIAcore X), biotinylated ED-B on SA chip
T1 construct: domain: ED-B; Expressed in E. coli BL21 from pET28b; also called biotinylated-EDB; not shown: N-terminal His-tag from the pET28b vector
Procedure: (§1) Bipodal-peptide binder peptides specific to ED-B, VEGF or nAchR which were repetitively found in DNA sequencing were synthesized from Anigen Inc. (Korea). Affinity was measured using BIAcore X instrument (Biacore AB, Uppsala, Sweden). ED-B and nAchR were immobilized on streptavidin (SA) chip (Biacore) by injecting 2,000 RU biotinylated-EDB. VEGF was immobilized on CM5 chip (Biacore) using EDC/NHS. PBS (pH 7.4) was used as a running buffer.
(§2) The above-mentioned peptides were synthesized and their affinities to fibronectin ED-B, VEGF, VCAM1, nAchR and HAS were measured using SPR Biacore system (Biacore AB, Uppsala, Sweden).

[2] = target: T1, Fibronectin ED-B protein (human …); assay: SPR (BIAcore X), biotinylated ED-B on streptavidin chip, synthetic peptide as analyte
Procedure: as §1, §2

[3] = target: T2, VEGF121 (human vascular endothelial growth factor) (human, UniProt P15692-9 27-147); assay: SPR (BIAcore X), VEGF on CM5 chip
T2 construct: Immobilised on a CM5 chip by EDC/NHS for SPR and coated on plates for phage ELISA; also called VEGF-Trx cut with thrombin
T2 sequence (looked up): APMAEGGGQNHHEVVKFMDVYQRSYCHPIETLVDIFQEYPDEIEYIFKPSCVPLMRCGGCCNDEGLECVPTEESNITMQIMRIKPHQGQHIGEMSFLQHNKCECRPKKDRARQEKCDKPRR
Procedure: as §1, §2

[4] = target: T2, VEGF121 (human vascular endothelial …); assay: SPR (BIAcore X), VEGF on CM5 chip, synthetic peptide as analyte
Procedure: as §1, §2

[5] = target: T1, Fibronectin ED-B protein (human …); assay: SPR (Biacore), ED-B
Procedure: as §1
(§3) To verify cooperative effect of bipodal-peptide binder to antigen, we synthesized two peptides removing either N- or C-terminal region of peptide 2 to ED-B having excellent specificity in Table 3a for affinity measurement.

[6] = target: T1, Fibronectin ED-B protein (human …); assay: SPR, synthetic truncated peptide on ED-B
Procedure: as §1, §3

[7] = target: T1, Fibronectin ED-B protein (human …); assay: SPR (BIAcore X), 2,000 RU biotinylated ED-B on streptavidin chip, PBS pH 7.4, 30 µl/min
Procedure: (§4) In addition to tryptophan zipper, GB1 m3 and HP7 peptide as a type of other (3-hairpin backbones were synthesized to contain N-terminal sequence (HCSSAV) and C-terminal sequence (IIRLEQ) of peptide 2 which is specifically bound to ED-B (Anigen, Korea). In other words, the sequence of bipodal-peptide binder in tryptophan zipper is […], and in GB1 m3 and HP7 are […] and […], respectively. Affinity of each peptide was measured using BIAcore X (Biacore AB, Uppsala, Sweden). ED-B was immobilized on streptavidin (SA) chip (Biacore) by injecting 2,000 RU biotinylated-EDB. PBS (pH 7.4) was used as a running buffer. […] It could be appreciated that all stable β-hairpin motifs may function as a structure stabilizing region.

[8] = target: T1, Fibronectin ED-B protein (human …); assay: SPR (BIAcore X), biotinylated ED-B on SA chip; remark: listed apart in the source
Procedure: as §4

BSA = target: T3, BSA (UniProt P02769 25-607); assay: phage ELISA, absorbance at 450 nm
T3 construct: Control protein in the input-phage ELISA; also called bovine serum albumin

[9] = target: T2, VEGF121 (human vascular endothelial …); assay: phage ELISA: clones with higher absorbance than on BSA, sequenced
Procedure: (§5) The transformed cells were infected with Ex helper phages (5×10⁹ pfu/ml; OD=0.8-1.0) and cultured at 37° C. for 1 hr with shaking at 200 rpm. After removing the supernatant by centrifuging at 1,000×g for 10 min, the precipitated cells were resuspended in 1 ml LB liquid media supplemented with 50 μg/ml ampicillin and 25 μg/ml kanamycin, and cultured at 30° C. overnight with shaking at 200 rpm. The supernatant was collected by centrifuging at 10,000×g for 20 min at 4° C. and mixed with 2% skim milk, which is used in detection of phage peptides.
(§6) Fibronectin ED-B, VEGF, VCAM1, Nicotinic acetylcholine receptor (nAchR), Human serum albumin and MyD88 (each 5 μg/ml) and BSA (10 μg/ml) were added to 30 wells (50 μl per well) in a 96-well ELISA plate and then kept to stand at 4° C. overnight. Next day, all wells were washed with 0.1% PBST three times, and blocked at room temperature for 2 hrs using 2% skim milk diluted with PBS. Then, the solution was removed and the plate was washed with 0.1% PBST three times. Phage peptide solution (100 μl) amplified from each clone was divided into all wells and kept to stand at 27° C. for 1.5 hrs. After washing with 0.1% PBST 5 times, HRP-conjugated anti-M13 antibodies (1:1,000 dilution; GE Healthcare) were added to each well and incubated at 27° C. for 1 hr. After washing with 0.1% PBST 5 times, 100 μl TMB was divided into each well to induce colorimetric reaction, followed by stopping the reaction adding 100 μl of 1 M HCl. The absorbance was measured at 450 nm to select phages which had the absorbance higher than BSA. XL1 cells were infected with these phages and spread in plate to produce 100-200 of plaques. Using a sterile tip, plaques were inoculated in 4 ml LB-ampicillin (50 μg/ml) media and cultured at 37° C. overnight with vigorous shaking. Plasmids were purified by plasmid preparation kit (GeneAll, Seoul, Korea), and then sequenced. The following phagemid sequence was used for sequencing: 5′-[…]-3′.
(§7) The phages recovered from biopanning step having the highest ratio of output phage to input phage were isolated as plaques. Sixty plaques were amplified from each plaque, and then ELISA for BSA was carried out (FIG. 4). After selecting clones with higher absorbance compared to BSA, they were sequenced. We isolated peptides specific to each protein which were repetitively found in DNA sequencing (Table 3).

Human serum albumin = target: T4, Human serum albumin (human, UniProt P02768 25-609); assay: as above
T4 construct: Bought protein; also called HSA; HAS
Procedure: as §5, §6, §7

[10] = target: T5, Peptide fragment of nAchR (Nicotinic acetylcholine receptor), 32 mer, biotinylated (N-terminal biotin); assay: as above
T5 construct: Synthesised by Anigen; Immobilised on a streptavidin chip for SPR; also called biotinylated nAchR; biotinylated-nAchR peptide
T5 peptide: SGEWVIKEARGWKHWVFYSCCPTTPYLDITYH
Procedure: as §5, §6, §7

[11] = target: T6, GST-AR DBD protein (androgen receptor DNA binding domain with N-terminal GST) (UniProt P10275 556-636); assay: phage ELISA of single clones on AR-DBD against BSA
T6 construct: In ELISA and EMSA the text calls the protein AR-DBD or AR DBD protein; also called androgen receptor DBD; not shown: GST encoded by the pGEX-4T-1 vector, N-terminal
T6 sequence (looked up): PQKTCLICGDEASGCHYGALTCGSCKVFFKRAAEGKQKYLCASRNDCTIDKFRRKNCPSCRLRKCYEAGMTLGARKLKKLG
Procedure: AR-DBD (10 μg/ml) and BSA (10 μg/ml) each was added to 30 wells (50 μl per well) in a 96-well ELISA plate and then kept to stand at 4° C. overnight. Next day, all wells were washed with 0.1% PBST three times, and blocked at room temperature for 2 hrs using 2% skim milk diluted with PBS. Then, the solution was removed and the plate was washed with 0.1% PBST three times. Phage peptide solution (100 μl) amplified from each clone was aliquoted to […] protein-bound wells and BSA protein-bound wells and kept to stand at 27° C. for 1.5 hrs. After washing with 0.1% PBST 10 times, HRP-conjugated anti-M13 antibodies (1:1,000 dilution; GE Healthcare) were added to each well and incubated at 27° C. for 1 hr. After washing with 0.1% PBST 5 times, 100 μl TMB was divided into each well to induce colorimetric reaction, followed by stopping the reaction adding 100 μl of 1 M HCl. The absorbance was measured at 450 nm to select phages which had the absorbance above 20-fold higher than BSA. XL1 cells were infected with these phages and spread in plate to produce 100-200 of plaques. […]
The phages recovered from the 5th biopanning step having the highest O/I ratio in each library were isolated as plaques. […] Most plaques were analyzed to show the absorbance value of AR-DBD higher than that of BSA. The DNA sequencing was performed for 20 clones showing the absorbance value above 5-fold higher than BSA. […]

T4 sequence (P02768 25-609 limits assumed): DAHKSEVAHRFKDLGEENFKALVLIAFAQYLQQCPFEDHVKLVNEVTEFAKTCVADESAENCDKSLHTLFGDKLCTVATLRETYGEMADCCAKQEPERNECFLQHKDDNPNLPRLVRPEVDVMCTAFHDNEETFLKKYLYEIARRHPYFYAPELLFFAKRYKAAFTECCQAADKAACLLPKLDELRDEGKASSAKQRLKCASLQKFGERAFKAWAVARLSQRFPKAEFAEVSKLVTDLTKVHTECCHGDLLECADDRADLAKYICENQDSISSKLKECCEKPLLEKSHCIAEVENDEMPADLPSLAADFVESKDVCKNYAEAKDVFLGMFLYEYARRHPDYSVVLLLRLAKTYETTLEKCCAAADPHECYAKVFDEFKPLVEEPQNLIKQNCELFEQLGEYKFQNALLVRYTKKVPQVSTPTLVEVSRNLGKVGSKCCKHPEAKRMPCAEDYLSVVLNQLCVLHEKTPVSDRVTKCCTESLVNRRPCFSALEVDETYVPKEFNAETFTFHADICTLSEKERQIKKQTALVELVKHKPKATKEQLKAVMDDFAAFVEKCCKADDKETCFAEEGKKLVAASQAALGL
T1 sequence (P02751 1266-1356): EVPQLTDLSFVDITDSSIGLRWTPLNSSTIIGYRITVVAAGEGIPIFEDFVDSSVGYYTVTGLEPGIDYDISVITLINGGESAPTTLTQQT
T3 sequence (P02769 25-607 limits assumed): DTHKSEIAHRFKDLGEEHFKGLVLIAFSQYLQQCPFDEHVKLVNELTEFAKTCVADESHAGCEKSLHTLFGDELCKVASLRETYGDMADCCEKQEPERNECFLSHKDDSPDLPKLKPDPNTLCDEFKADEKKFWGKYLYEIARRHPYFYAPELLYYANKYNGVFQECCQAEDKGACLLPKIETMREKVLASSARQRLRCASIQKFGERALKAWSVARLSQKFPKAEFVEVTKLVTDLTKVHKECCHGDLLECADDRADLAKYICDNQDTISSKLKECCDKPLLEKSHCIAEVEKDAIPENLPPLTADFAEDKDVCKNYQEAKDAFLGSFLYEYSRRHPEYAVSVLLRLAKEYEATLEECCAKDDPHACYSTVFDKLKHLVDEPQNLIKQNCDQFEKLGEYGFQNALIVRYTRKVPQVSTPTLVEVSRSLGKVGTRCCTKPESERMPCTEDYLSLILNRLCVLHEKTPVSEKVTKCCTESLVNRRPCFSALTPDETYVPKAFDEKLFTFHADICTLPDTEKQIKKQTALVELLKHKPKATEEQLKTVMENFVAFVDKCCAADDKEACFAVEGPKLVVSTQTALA

With MSADKSGSWTWENGKWTWKGQVRTRD [Peptide 1 specific to fibronectin ED-B (Table 3a), bipodal-peptide binder] the koff [1] was 0.024 s⁻¹, the kon [1] was 38000 M⁻¹ s⁻¹ and the Kd [2] was 620 nM.

For ASPFWAGSWTWENGKWTWKGWVPSNA [Peptide 2 specific to VEGF (Table 3b), bipodal-peptide binder], the koff [3] was 0.011 s⁻¹, the kon [3] was 35000 M⁻¹ s⁻¹ and the Kd [4] was 326 nM.

For HCSSAVGSWTWENGKWTWKG [N-terminal region peptide derived from ED-B peptide 2 (monopodal, one target binding region removed)], the koff [5] was 2.54 s⁻¹, the kon [5] was 4290 M⁻¹ s⁻¹ and the Kd [6] was 592000 nM.

For GSWTWENGKWTWKGIIRLEQ [C-terminal region peptide derived from ED-B peptide 2 (monopodal, one target binding region removed)], the koff [5] was 0.022 s⁻¹, the kon [5] was 1770 M⁻¹ s⁻¹ and the Kd [6] was 12800 nM.

HCSSAVGKKWTYNPATGKFTVQEGIIRLEQ (Synthetic peptide (Anigen)) [Bipodal-peptide binder with GB1 m3 β-hairpin backbone carrying the ED-B peptide 2 binding regions] showed a Kd [7] of 70 nM, a koff [8] of 0.0119 s⁻¹ and a kon [8] of 169000 M⁻¹ s⁻¹.

HCSSAVGKTWNPATGKWTEGIIRLEQ (Synthetic peptide (Anigen)) [Bipodal-peptide binder with HP7 β-hairpin backbone carrying the ED-B peptide 2 binding regions] showed a Kd [7] of 84 nM, a koff [8] of 0.0197 s⁻¹ and a kon [8] of 236000 M⁻¹ s⁻¹.

HSQGSPGSWTWENGKWTWKGRYSHRA [Peptide 3 specific to fibronectin ED-B (Table 3a), bipodal-peptide binder] was tested, and the koff [1] was 0.099 s⁻¹, the kon [1] was 390000 M⁻¹ s⁻¹ and the Kd [2] was 2500 nM.

In the case of HANFFQGSWTWENGKWTWKGWKYNQS [Peptide 1 specific to VEGF (Table 3b), bipodal-peptide binder], the koff [3] is reported as 0.013 s⁻¹, the kon [3] is reported as 220000 M⁻¹ s⁻¹ and the Kd [4] is reported as 60 nM. HANFFQGSWTWENGKWTWKGWKYNQS [Peptide 1 specific to VEGF (Table 3b), bipodal-peptide binder]: no binding (BSA).

HAFYYTGSWTWENGKWTWKGWPVTTS [Peptide 3 specific to VEGF (Table 3b), bipodal-peptide binder]: binds [9].

YGAYPWGSWTWENGKWTWKGWRVSRD: binds [9]; binds (Human serum albumin).

AAPTSFGSWTWENGKWTWKGWQMWHR [Peptide 5 specific to VEGF (Table 3b), bipodal-peptide binder]: binds [9].

YAYPLLGSWTWENGKWTWKGWYQKWI [Peptide 2 specific to nAchR (Table 3d), bipodal-peptide binder]: binds [10].

ASLPAWGSWTWENGKWTWKGWSTRTA [Peptide 3 specific to nAchR (Table 3d), bipodal-peptide binder]: binds [10].

SANSLYGSWTWENGKWTWKGTSRQRW [Peptide 2 specific to HSA (Table 3e), bipodal-peptide binder]: binds (Human serum albumin).

YAHVYYGSWTWENGKWTWKGHRVTQT [Peptide 3 specific to HSA (Table 3e), bipodal-peptide binder]: binds (Human serum albumin).

YAHFGWGSWTWENGKWTWKGTTDSQS [Peptide 5 specific to HSA (Table 3e), bipodal-peptide binder]: binds (Human serum albumin).

For YGFAPFGSWTWENGKWTWKGYSTQKP [Peptide 1 from the AR-DBD biopanning (14/20 clones), bipodal-peptide binder], the “fold absorbance over BSA” value [11] was > 5 fold.

With GGHNIQGSWTWENGKWTWKGWQHIWG [Peptide 2 from the AR-DBD biopanning (6/20 clones), bipodal-peptide binder] the “fold absorbance over BSA” value [11] was > 5 fold.
